Assay results from paper PMC9508527, “Two-component carnitine monooxygenase from Escherichia coli: functional characterization, inhibition and mutagenesis of the molecular interface” (Bioscience Reports, 2022).
Substitutions are numbered along the chain they refer to. Names may count otherwise. Where two headings read alike, the source gives them in different places.

Columns and labels:
[1] = target: T1, YeaW (carnitine monooxygenase oxygenase component) (Escherichia coli, UniProt P0ABR7); assay: L-carnitine depletion and O2 depletion assays with purified proteins; type: biochemical
T1 construct: N-terminal strep tag II fusion; with YeaX

[2] = target: T2, CntA (carnitine monooxygenase oxygenase component) (Acinetobacter baumannii, UniProt D0C9N6); assay: L-carnitine depletion assay with purified proteins; type: biochemical
T2 construct: with CntB (homologous system) or YeaX (chimeric system)

[3] = target: T1, YeaW (carnitine monooxygenase oxygenase component); assay: L-carnitine depletion assay with purified YeaX/YeaW; slow conversion to TMA also shown by GC-MS; type: biochemical
[4] = target: T3, YeaW, Rieske-type oxygenase component of carnitine monooxygenase from E. coli (E. coli) (UniProt P0ABR7)
T3 sequence: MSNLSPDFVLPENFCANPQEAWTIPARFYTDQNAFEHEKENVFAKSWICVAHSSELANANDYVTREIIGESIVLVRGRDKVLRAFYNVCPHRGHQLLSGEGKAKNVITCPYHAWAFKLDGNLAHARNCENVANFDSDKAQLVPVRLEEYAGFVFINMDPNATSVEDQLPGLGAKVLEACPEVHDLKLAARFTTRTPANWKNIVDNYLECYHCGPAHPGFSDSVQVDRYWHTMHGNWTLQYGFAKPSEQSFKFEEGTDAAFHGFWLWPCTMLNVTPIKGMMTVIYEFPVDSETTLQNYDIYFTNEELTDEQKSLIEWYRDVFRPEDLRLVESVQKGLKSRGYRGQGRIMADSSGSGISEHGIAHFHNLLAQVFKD

[5] = target: the molecule itself; assay: SEC; analytical gel filtration, Superdex 200 increase 5/150 GL, 10 mM Hepes-NaOH pH 7.5, 150 mM NaCl, 0.45 ml min^-1, 20 µl samples (~300 µM), calibrated with protein standards
[6] = target: T3, YeaW, Rieske-type oxygenase component of carnitine monooxygenase from E. coli (E. coli); remark: listed apart in the source
[7] = target: T3, YeaW, Rieske-type oxygenase component of carnitine monooxygenase from E. coli (E. coli); remark: listed apart in the source
[8] = target: T3, YeaW, Rieske-type oxygenase component of carnitine monooxygenase from E. coli (E. coli); remark: listed apart in the source

T1 sequence (P76254 whole entry, one chain of several, the tested form may be a part): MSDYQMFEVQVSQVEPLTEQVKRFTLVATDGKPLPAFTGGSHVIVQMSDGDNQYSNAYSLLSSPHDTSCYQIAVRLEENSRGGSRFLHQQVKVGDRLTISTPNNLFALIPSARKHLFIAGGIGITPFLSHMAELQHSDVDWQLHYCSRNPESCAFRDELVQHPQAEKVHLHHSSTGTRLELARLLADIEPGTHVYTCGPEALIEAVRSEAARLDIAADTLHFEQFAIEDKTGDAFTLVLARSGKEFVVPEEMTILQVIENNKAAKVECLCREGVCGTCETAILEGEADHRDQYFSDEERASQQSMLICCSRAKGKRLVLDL
T2 sequence (D0C9N6 whole entry): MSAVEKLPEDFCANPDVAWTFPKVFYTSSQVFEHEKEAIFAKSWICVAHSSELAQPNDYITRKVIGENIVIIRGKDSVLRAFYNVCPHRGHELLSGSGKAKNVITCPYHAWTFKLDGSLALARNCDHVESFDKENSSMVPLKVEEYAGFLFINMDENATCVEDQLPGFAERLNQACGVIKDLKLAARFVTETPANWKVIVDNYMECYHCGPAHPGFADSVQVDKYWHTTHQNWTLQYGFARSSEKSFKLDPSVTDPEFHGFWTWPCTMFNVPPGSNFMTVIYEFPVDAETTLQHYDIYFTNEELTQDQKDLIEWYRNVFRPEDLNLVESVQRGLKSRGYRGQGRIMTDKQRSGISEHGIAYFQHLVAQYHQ

C[N+](C)(C)C[C@H](O)CC(=O)[O-] [L-carnitine]
L-carnitine depletion and O2 depletion assays with purified proteins [1]: 1288 ± 48 nmol/min/mg | L-carnitine depletion assay with purified proteins [2]: 353 ± 68 nmol/min/mg

C[N+](C)(C)NCCC(=O)[O-] [meldonium]
IC50 [3]: 612 ± 68 µM

B1: CntB, reductase component of carnitine monooxygenase from Acinetobacter baumannii (enzyme)
chain: MASHYEMFPAVVTRVEQLTPLIKRFTFKRQDGQNFPRFSGGSHIIVKMNEQLSNAYSLMSCTQDLSTYQVCVRKDVEGKGGSVFMHDQCNEGCEIQISEPKNLFPLAETGNKHILIAGGIGITPFLPQMDELAARGAEYELHYAYRSPEHAALLDELTQKHAGHVFSYVDSEGSMLNLDELISSQPKGTHVYVCGPKPMIDAVIDCCNKHRYRDEYIHWEQFASTVPEDGEAFTVVLAKSNQEIEVQSNQTILQAIETLNIDVECLCREGVCGTCETAILEGEAEHFDQYLSDAEKASQKSMMICVSRAKGKKLVLDL
Relative L-carnitine depletion activity of the chimeric enzyme (YeaX/YeaW = 100%) [4]: 20% | Relative O2 depletion activity of the chimeric enzyme (YeaX/YeaW = 100%) [4]: 4%

B2: YeaW, Rieske-type oxygenase component of carnitine monooxygenase from E. coli (enzyme, UniProt P0ABR7 1-374, looked up)
chain: T3 sequence
notes: primers run from the start to the stop codon; No cleavage of the tag is described; calculated molecular mass 45,463 Da; Carries a Rieske-type [2Fe-2S] cluster and a mononuclear [Fe] center; also called oxygenase YeaW; catalytic unit YeaW
stoichiometry N [5]: 3

B3: YeaX variant K313Q (enzyme)
chain: MSDYQMFEVQVSQVEPLTEQVKRFTLVATDGKPLPAFTGGSHVIVQMSDGDNQYSNAYSLLSSPHDTSCYQIAVRLEENSRGGSRFLHQQVKVGDRLTISTPNNLFALIPSARKHLFIAGGIGITPFLSHMAELQHSDVDWQLHYCSRNPESCAFRDELVQHPQAEKVHLHHSSTGTRLELARLLADIEPGTHVYTCGPEALIEAVRSEAARLDIAADTLHFEQFAIEDKTGDAFTLVLARSGKEFVVPEEMTILQVIENNKAAKVECLCREGVCGTCETAILEGEADHRDQYFSDEERASQQSMLICCSRAQGKRLVLDL
residual L-carnitine depletion activity (wild type = 100%) [6]: 30% | residual O2 depletion activity (wild type = 100%) [6]: 30%

B4: YeaX variant R271K (enzyme)
chain: B3 chain with R271K, Q313K
residual L-carnitine depletion activity (wild type = 100%) [7]: 80% | residual O2 depletion activity (wild type = 100%) [7]: 70%

B5: YeaX variant R271Q (enzyme)
chain: B3 chain with R271Q, Q313K
residual L-carnitine depletion activity (wild type = 100%) [7]: 4% | residual O2 depletion activity (wild type = 100%) [7]: 11%

B6: YeaX variant D320K (enzyme)
chain: B3 chain with Q313K, D320K
residual L-carnitine depletion activity (wild type = 100%) [8]: 3% | residual O2 depletion activity (wild type = 100%) [8]: 7%

B7: YeaX variant K313E (enzyme)
chain: B3 chain with Q313E
residual L-carnitine depletion activity (wild type = 100%) [6]: 7% | residual O2 depletion activity (wild type = 100%) [6]: 11%

B8: YeaX variant D320N (enzyme)
chain: B3 chain with Q313K, D320N
L-carnitine depletion activity (wild type = 100%) [8]: 9% | O2 depletion activity (wild type = 100%) [8]: 11%
